Laboratory results published in patent US20080027001A1, “NOGO RECEPTOR FUNCTIONAL MOTIFS, PEPTIDE MIMETICS, AND MUTATED FUNCTIONAL MOTIFS RELATED THERETO, AND METHODS OF USING THE SAME” (priority 2006, published 2008).

Target: human p75 neurotrophin receptor (p75NTR) expressed in CHO-K1 cells (human) (UniProt P08138)
Assay: AP fusion protein on CHO-K1 cells expressing cell-surface human p75NTR, fluorescent AP substrate

human p75 neurotrophin receptor (p75NTR) expressed in CHO-K1 cells (human), sequence (P08138 29-427): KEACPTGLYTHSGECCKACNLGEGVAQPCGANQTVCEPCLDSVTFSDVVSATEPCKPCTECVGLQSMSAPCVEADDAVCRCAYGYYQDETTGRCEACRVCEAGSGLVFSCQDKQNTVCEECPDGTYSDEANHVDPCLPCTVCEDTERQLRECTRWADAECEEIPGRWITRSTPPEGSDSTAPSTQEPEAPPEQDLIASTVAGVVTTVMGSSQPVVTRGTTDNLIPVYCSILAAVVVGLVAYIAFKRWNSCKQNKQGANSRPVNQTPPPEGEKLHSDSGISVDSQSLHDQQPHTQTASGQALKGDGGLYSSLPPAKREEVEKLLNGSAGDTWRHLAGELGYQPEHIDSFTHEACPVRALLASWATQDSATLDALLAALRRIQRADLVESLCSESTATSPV

fold bound against mock-transfected control cells: 5 fold
Substance: NgR-AP
